How the values were obtained:
Assay in all cases: flow cytometry on transiently transfected cells
[1] = target: T1, BCMA on transiently transfected cells (UniProt Q02223 1-184, limits assumed)
T1 construct: whole, on cells
T1 sequence (looked up): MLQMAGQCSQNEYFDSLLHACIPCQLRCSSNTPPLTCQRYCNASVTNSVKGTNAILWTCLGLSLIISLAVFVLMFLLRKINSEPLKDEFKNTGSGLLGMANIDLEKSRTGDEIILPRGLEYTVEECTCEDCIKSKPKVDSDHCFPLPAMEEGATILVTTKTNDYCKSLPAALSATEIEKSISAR
Experimental: (§1) One million cells, in 0.1 ml of FACS buffer (PBS, 0.1% BSA, 0.1% NaN₃), were incubated with 0.1-1 microgram of protein or antibody at RT for 15 min. The cells were washed with 3 ml of FACS buffer, reacted with biotinylated primary antibody, and stained with PE-conjugated secondary antibody at RT for 15 min. Cells were then washed again, resuspended in 0.5 microgram/ml of propidium iodide, and live cells were gated and analyzed on a FACScan using the CellQuest software (BD Biosciences).

[2] = target: T2, LTβR on transiently transfected cells (UniProt P36941 31-435, limits assumed)
T2 construct: whole, on cells
T2 sequence (P36941 31-435 limits assumed): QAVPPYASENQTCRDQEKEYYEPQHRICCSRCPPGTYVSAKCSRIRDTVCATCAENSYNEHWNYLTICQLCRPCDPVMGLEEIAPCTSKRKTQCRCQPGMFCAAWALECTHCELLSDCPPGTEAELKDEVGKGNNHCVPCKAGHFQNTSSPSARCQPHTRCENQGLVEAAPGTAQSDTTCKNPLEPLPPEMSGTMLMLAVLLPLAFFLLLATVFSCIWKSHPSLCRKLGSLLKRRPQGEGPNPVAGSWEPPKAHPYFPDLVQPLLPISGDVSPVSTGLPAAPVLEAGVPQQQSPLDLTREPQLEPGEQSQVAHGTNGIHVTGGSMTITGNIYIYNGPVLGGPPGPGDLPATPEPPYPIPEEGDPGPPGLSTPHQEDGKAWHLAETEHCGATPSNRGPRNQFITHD
Experimental: as §1

[3] = target: T3, TNFR2 on transiently transfected cells (UniProt P20333 23-461, limits assumed)
T3 construct: whole, on cells
T3 sequence (looked up): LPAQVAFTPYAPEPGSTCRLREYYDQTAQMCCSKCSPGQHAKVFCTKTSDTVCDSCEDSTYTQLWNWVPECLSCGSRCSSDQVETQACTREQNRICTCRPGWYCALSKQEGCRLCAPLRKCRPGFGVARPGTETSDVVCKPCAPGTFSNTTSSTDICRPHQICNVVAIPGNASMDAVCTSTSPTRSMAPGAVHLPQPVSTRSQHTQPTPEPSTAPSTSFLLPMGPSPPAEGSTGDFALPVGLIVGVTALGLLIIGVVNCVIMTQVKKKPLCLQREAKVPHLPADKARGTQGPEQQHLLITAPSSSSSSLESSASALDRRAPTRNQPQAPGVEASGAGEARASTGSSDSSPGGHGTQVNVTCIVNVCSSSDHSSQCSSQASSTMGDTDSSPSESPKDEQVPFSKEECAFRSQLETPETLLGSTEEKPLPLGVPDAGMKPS
Experimental: as §1

[4] = target: T4, DR5 on transiently transfected cells (UniProt O14763 56-440, limits assumed)
T4 construct: whole, on cells
Experimental: as §1

[5] = target: T5, DcR1 on transiently transfected cells (UniProt O14798 26-236, limits assumed)
T5 construct: whole, on cells
T5 sequence (looked up): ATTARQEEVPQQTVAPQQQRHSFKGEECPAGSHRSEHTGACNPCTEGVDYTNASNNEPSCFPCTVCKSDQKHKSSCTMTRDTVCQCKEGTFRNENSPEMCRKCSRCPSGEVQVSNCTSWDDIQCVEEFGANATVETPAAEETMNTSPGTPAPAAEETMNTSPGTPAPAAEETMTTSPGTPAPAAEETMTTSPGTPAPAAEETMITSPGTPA
Experimental: as §1

[6] = target: T6, AITR on transiently transfected cells (UniProt Q9Y5U5 26-241, limits assumed)
T6 construct: whole, on cells
T6 sequence (looked up): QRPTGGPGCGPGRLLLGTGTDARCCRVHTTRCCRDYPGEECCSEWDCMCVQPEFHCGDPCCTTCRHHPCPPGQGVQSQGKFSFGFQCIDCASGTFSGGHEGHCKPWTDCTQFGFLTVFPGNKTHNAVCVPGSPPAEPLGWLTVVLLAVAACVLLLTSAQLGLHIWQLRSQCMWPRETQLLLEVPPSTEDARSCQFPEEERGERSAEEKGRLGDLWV
Experimental: as §1

[7] = target: T7, DR4 on transiently transfected cells (UniProt O00220 24-468, limits assumed)
T7 construct: whole, on cells
T7 sequence (looked up): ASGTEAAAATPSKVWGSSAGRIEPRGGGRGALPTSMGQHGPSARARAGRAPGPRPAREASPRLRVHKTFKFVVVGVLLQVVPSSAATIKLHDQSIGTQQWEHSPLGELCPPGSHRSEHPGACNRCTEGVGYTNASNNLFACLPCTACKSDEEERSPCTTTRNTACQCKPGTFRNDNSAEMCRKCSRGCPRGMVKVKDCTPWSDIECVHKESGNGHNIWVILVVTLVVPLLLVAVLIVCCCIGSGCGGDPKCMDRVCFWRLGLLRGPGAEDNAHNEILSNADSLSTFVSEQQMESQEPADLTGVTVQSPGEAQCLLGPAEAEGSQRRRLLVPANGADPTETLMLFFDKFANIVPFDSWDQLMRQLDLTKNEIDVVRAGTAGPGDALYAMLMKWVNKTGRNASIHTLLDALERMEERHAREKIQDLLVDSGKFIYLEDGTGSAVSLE
Experimental: as §1

[8] = target: T8, 4-1BB on transiently transfected cells (UniProt Q07011 24-255, limits assumed)
T8 construct: whole, on cells
T8 sequence (Q07011 24-255 limits assumed): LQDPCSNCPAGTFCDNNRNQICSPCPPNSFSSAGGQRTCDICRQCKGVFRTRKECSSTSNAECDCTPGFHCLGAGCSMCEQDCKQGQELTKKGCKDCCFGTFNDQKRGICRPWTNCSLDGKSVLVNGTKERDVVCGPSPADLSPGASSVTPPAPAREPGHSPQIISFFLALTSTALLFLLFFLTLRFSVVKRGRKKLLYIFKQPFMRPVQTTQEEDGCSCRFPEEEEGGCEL
Experimental: as §1

Measured: binding result

B1: FLAG-tagged soluble form of TNF-gamma-beta (aa 72-251) (ligand, human, UniProt O95150 72-251, looked up)
chain: LKGQEFAPSHQQVYAPLRADGDKPRAHLTVVRQTPTQHFKNQFPALHWEHELGLAFTKNRMNYTNKFLLIPESGDYFIYSQVTFRGMTSECSEIRQAGRPNKPDSITVVITKVTDSYPEPTQLLMGTKSVCEVGSNWFQPIYLGAMFSLQEGDKLMVNVSDISLVDYTKEDKTFFGAFLL
notes: also called FLAG-TL1β; FLAG-TNF-gamma-beta; not shown: FLAG tag of vector pFLAGCMV1
no binding: [1] | [2] | [3] | [4] | [5] | [6] | [7] | [8]
